± gives the standard deviation.
Assay: protein stability index of a GFP-peptide fusion (GPS, HEK-293T) (PSI 1-6); higher = more stable
[1] = treatment: DMSO, c terminus: a fixed tail appended
[2] = treatment: MLN4924 1 uM, 8 h, c terminus: a fixed tail appended
[3] = treatment: DMSO, c terminus: native
[4] = treatment: MLN4924 1 uM, 8 h, c terminus: native
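Note: 24-mer peptide tiles fused after GFP, lentivirally expressed, FACS-sorted into six equal bins by GFP/DsRed ratio, decoded by Illumina sequencing, PSI is the read-weighted mean bin number.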

Row | Sequence | protein stability index [1] | protein stability index [2] | protein stability index [3] | protein stability index [4]
1 | YNKPTDDIVLMAQALEKIFLQKVA [BRD3] | 2.45 ± 0.54 | 2.06 ± 0.44 | – | –
2 | ESPDEMELDELLKEISRKRRSIRY [PTPRD] | 3.05 ± 0.24 | 3.4 ± 0.069 | – | –
3 | ICGFLKERCFRGSSYPVCVSKVVK [OAS1] | 2.62 ± 0.31 | 2.13 ± 0.3 | – | –
4 | YTYRDYGHSSSRDDYPSRGYSDRD [RBMX] | 3.94 ± 0.3 | 4.02 ± 0.26 | – | –
5 | ASSNVFSNFEQTQIQEFKEAFTLM [MYL5] | 3.49 ± 0.18 | 3.42 ± 0.27 | – | –
6 | HIKEILITAGGENVPPIPVETLVK [ACSBG2] | 2.71 ± 0.38 | 2.88 ± 0.2 | – | –
7 | DIGAVYSHRPNQHNTVKLGAFQAQ [PRIM1] | 3.11 ± 0.41 | 3.19 ± 0.45 | – | –
8 | SRSPSVEGSLWAVGTESQGRDWRH [PXN] | 4.04 ± 0.11 | 4.05 ± 0.23 | – | –
9 | KVHTVPKPGKGADLSKPPCRKAKE [ATE1] | 4.94 ± 0.24 | 5.125 ± 0.046 | – | –
10 | HGTKNVTNSSSLRLPRQNSDGGQK [WSB1] | 4.96 ± 0.2 | 4.87 ± 0.47 | – | –
11 | DKVIELHKSHRGMTPAEAEMHFLE [EPB41L3] | 4.51 ± 0.22 | 4.38 ± 0.14 | – | –
12 | LHYAAASDMDRNKTILGNAHDNSE [ANKRD44] | 4.76 ± 0.15 | 4.9 ± 0.044 | – | –
13 | FRDAAEEGGTAVTGGQTVVNPWII [SEPHS2] | 3.45 ± 0.2 | 3.54 ± 0.26 | – | –
14 | VLLQTSPYHVDSLLQLSDACRFQE [TCF25] | 2.22 ± 0.41 | 2.41 ± 0.56 | – | –
15 | DQENFQGKRMEFTSSCPNVSERSF [CRYBA1] | 4.49 ± 0.12 | 4.46 ± 0.24 | – | –
16 | IPQGICPVGRSWHSLTPVSSDHLF [KLHDC2] | 2.68 ± 0.28 | 2.52 ± 0.21 | – | –
17 | LKVGGILVMPLEEKLTKITRTGPS [PCMTD2] | 2.4 ± 0.21 | 2.16 ± 0.41 | – | –
18 | EEARRNRLMRDMAQLRLQLEVSQL [SMG5] | 2.25 ± 0.27 | 2.41 ± 0.29 | – | –
19 | SAGGSRTPAMSSSSSSRVLLRQQL [TFE3] | 3.45 ± 0.24 | 3.32 ± 0.19 | – | –
20 | KELRKDYQGPGTRRLQEVLGVQTG [DYRK1B] | 4.07 ± 0.16 | 4.42 ± 0.17 | – | –
21 | ESSQKYKEGKYIIELNHMIKDNGW [YPEL3] | 3.04 ± 0.21 | 3.08 ± 0.27 | – | –
22 | SATALYRTDYSGRGELSARQMHLA [RAD51] | 3.26 ± 0.19 | 3.33 ± 0.21 | – | –
23 | NQTAELRELLEFTHMYLQSDDEME [P3H4] | 4.83 ± 0.19 | 4.7 ± 0.18 | – | –

Row | Sequence | protein stability index [1] | protein stability index [2] | protein stability index [3] | protein stability index [4]
24 | QVIHPQEFRRWRDTGVAFELRDSS [DNAAF3] | 3.29 ± 0.36 | 3.31 ± 0.32 | – | –
25 | MRLSSSPPRGPQQLSSFGSVDWLS [VENTX] | 2.99 ± 0.059 | 3.15 ± 0.3 | – | –
26 | ALEQGGLRAATMSAVEAATCRAKE [PYCR3] | 4.68 ± 0.3 | 4.96 ± 0.14 | – | –
27 | PGFDRGQFHKQIAVMRGQILNLTQ [PI4K2A] | 2.56 ± 0.21 | 2.56 ± 0.28 | – | –
28 | FRGFPPEDLMPLAAAYGHALEQYE [P3H4] | 2.8 ± 0.36 | 3.08 ± 0.16 | – | –
29 | AKLHDVELHQVAERVEALGQFVMK [GNB5] | 3.78 ± 0.2 | 3.74 ± 0.14 | – | –
30 | LSLVLGNVNVTLLSKQAKFAYKDE [TMEM120A] | 2.59 ± 0.53 | 2.23 ± 0.28 | – | –
31 | LQAKALQLIVTARTTRGLDPLFGM [INTS4] | 2.88 ± 0.6 | 2.59 ± 0.66 | – | –
32 | WSPSPPATPEQGLSAFYLSYFDML [SPDEF] | 2.14 ± 0.45 | 2.33 ± 0.48 | – | –
33 | FNYLHTNCFEITLELSCDKFPPEE [CPN1] | 2.5 ± 0.51 | 2.09 ± 0.42 | – | –
34 | HNIFLLGGSSTSERCLLNNSLWKK [NLN] | 2.39 ± 0.13 | 2.24 ± 0.39 | – | –
35 | VPARDGTSCKLTDLRGVCVSGKCE [ADAMTSL2] | 3.95 ± 0.23 | 3.92 ± 0.29 | – | –
36 | RNQTQVLRQQQDEAYLASLRADQE [FAF2] | 5.18 ± 0.32 | 5.17 ± 0.16 | – | –
37 | LEANADTSVEEESFGPQPISRLEQ [RAD51] | 5.38 ± 0.2 | 5.44 ± 0.18 | – | –
38 | SFQPECSMKLTPLVLEVFGNEIS [VDR] | – | – | 2.23 ± 0.33 | 2.41 ± 0.14
39 | RGGSLLAGGGGFGGGSLSGGGGSR [KRT15] | 3.32 ± 1.1 | 3.95 ± 0.34 | – | –
40 | AALELLPRELFPPLFMAAFDGRHS [PRAME] | 2.27 ± 0.38 | 2.4 ± 0.18 | – | –
41 | KCLLYCNGVLEPLYLCPNGARCAT [SLC25A39] | 2.24 ± 0.11 | 2.11 ± 0.27 | – | –
42 | SPFAQELLDDGQQASPYHPGSCGA [ELF3] | 4.83 ± 0.31 | 5.04 ± 0.16 | – | –
43 | CFNRSREYQLNDSAAYYLNDLDRI [GNAI1] | 2.51 ± 0.25 | 2.46 ± 0.23 | – | –
44 | PTKSHSFRAMCQNGKLVYPSCEEK [CFHR2] | 4.01 ± 0.32 | 4.25 ± 0.34 | – | –
45 | ERDALEAVFRFWAGGEKGPQAFPM [DNAAF3] | 2.5 ± 0.24 | 2.58 ± 0.28 | – | –
46 | QIDAVGSKLKMLERKGWLAPSPGV [PKD2L1] | 3 ± 0.45 | 3.17 ± 0.22 | – | –

Row | Sequence | protein stability index [1] | protein stability index [2] | protein stability index [3] | protein stability index [4]
47 | TQSWSSQSSFNSLQRVPSYDSFDS [ETS1] | 4.06 ± 0.2 | 3.98 ± 0.22 | – | –
48 | LMTCEMLNRRNGSLRIALSEHLKQ [EDNRA] | 2.71 ± 0.17 | 2.72 ± 0.26 | – | –
49 | LMPGVPPLMPGMPPVMPGMPPGLH [ZNF207] | 3.02 ± 0.33 | 2.99 ± 0.32 | – | –
50 | ELSEAAEAQHGPHSAVARISRAQY [STX11] | 4.53 ± 0.24 | 4.63 ± 0.15 | – | –
51 | EKEMKAQEQRLGIRISMSHEEEPL [GMPPB] | 5.23 ± 0.25 | 5.24 ± 0.086 | – | –
52 | VISLLNEPNTFSPANVDASVMFRK [UBE2R2] | 2.79 ± 0.31 | 3.04 ± 0.2 | – | –
53 | KLFYFKIWAFLDVSFVERILKSQK [FBXO39] | 2.62 ± 0.74 | 2.47 ± 0.5 | – | –
54 | YINFRHLYKQRRRRYGQKKKKIH [HACD3] | – | – | 2.12 ± 0.29 | 2.74 ± 0.55
55 | PVHLVDKLPLPIALRSHLKSFSMA [RAB40B] | 2.46 ± 0.2 | 2.27 ± 0.2 | – | –
56 | YWDGSGHRRTVKMRKGNTMQQFLQ [FAM50A] | 2.74 ± 0.12 | 2.72 ± 0.24 | – | –
57 | APLTISRVHAGSKAALAALCPGDL [PDLIM4] | 3.62 ± 0.37 | 3.65 ± 0.28 | – | –
58 | TSRGKLGGQDSFESIESYDSCDRL [ETS1] | 4.62 ± 0.16 | 4.68 ± 0.13 | – | –
59 | TITLNCPRNSDMKNQGEENGFPDS [EDARADD] | 4.11 ± 0.51 | 4.23 ± 0.19 | – | –
60 | DVSLPRGAFPPRGPRPVQSVVPEM [CDK4] | 4.01 ± 0.33 | 3.94 ± 0.33 | – | –
61 | EQSSARQKASLLIQQALTMFPGVL [TCF25] | 2.51 ± 0.3 | 2.54 ± 0.3 | – | –
62 | KSNQPKSLEDLIFESLPENASHKL [ATE1] | 4.28 ± 0.21 | 4.5 ± 0.14 | – | –
63 | RLLLDSGAQVNMPADSFESPLTLA [ANKRD17] | 3.44 ± 0.23 | 3.46 ± 0.41 | – | –
64 | SGPEGNLNQIVTEPDANFPQFLHE [FAM104B] | 4.81 ± 0.15 | 4.93 ± 0.16 | – | –
65 | LATQSLTVETCRALGKLLPRETLC [LRRC45] | 2.44 ± 0.49 | 2.48 ± 0.45 | – | –
66 | QSMSQTRELLLDGGYLQRTTYDRR [RSPH3] | 3.85 ± 0.13 | 3.77 ± 0.052 | – | –
67 | VLGIQVKCFHEIITIGYRVYHSYD [CDS1] | 3.25 ± 0.25 | 3.04 ± 0.17 | – | –
68 | IRRPVNVPIDIFSEEIRFYQLGEE [KCNA3] | 2.59 ± 0.56 | 2.75 ± 0.37 | – | –
69 | PIEVVTEGLLNTYQELLGLSFEQM [NLN] | 2.13 ± 0.37 | 2.29 ± 0.38 | – | –

Row | Sequence | protein stability index [1] | protein stability index [2] | protein stability index [3] | protein stability index [4]
70 | PQKLKEVISLEKLNVGNERYVFEA [GAN] | 2.96 ± 0.21 | 2.92 ± 0.41 | – | –
71 | VTKLCVQFLNDQISVQNYKQVCKI [KLHL14] | 2.76 ± 0.46 | 2.42 ± 0.56 | – | –
72 | HPSGHWATCRLCGEQVGRGPGFHA [ZBED3] | 2.52 ± 0.069 | 3.05 ± 0.29 | – | –
73 | DIHITARIESDLTLESLSDEEIHP [DRICH1] | 4.85 ± 0.2 | 4.91 ± 0.19 | – | –
74 | TRKREDAEHNLVLFRKDVDDATLS [PRPH] | 4.77 ± 0.18 | 4.73 ± 0.097 | – | –
75 | AEALYQTKFQELQLAAGRHGDDLK [KRT71] | 4.61 ± 0.28 | 4.71 ± 0.13 | – | –
76 | PNAQYWSQFHSVRPQGPQLRQQQH [DNAJC4] | 3.62 ± 0.14 | 3.76 ± 0.29 | – | –
77 | DPCVISQEIMEKYNIKLKWTNQQK [CFHR2] | 3.19 ± 0.22 | 2.92 ± 0.22 | – | –
78 | YRMRNVHPKPKLVRVLESLLVSLV [CLCN6] | 2.44 ± 0.75 | 2.18 ± 0.35 | – | –
79 | KGKKLYPVVSAVWGHCEVTMRYIN [SPSB4] | 2.43 ± 0.82 | 2.65 ± 0.6 | – | –
80 | SSGSFCYCHPDSETDEDEEEGDEQ [GMCL1] | 5.52 ± 0.17 | 5.39 ± 0.14 | – | –
81 | NILIYETPRGPDPALLEATGGAAG [KCTD13] | 3.88 ± 0.19 | 3.84 ± 0.45 | – | –
82 | RSQYEALVETNRREVEQWFATQTE [KRT34] | 4.29 ± 0.25 | 4.33 ± 0.33 | – | –
83 | QKALYRRLATVHMSRMINKYKRRR [CLPTM1] | 3.7 ± 0.22 | 3.53 ± 0.16 | – | –
84 | KRTIIPTLVEAIKEQDGREVDWEY [DFFB] | 4.14 ± 0.11 | 4.36 ± 0.42 | – | –
85 | MEDSPLPDLRDIELKLGRKVPESL [LURAP1L] | 4.68 ± 0.2 | 4.63 ± 0.23 | – | –
86 | EHGDQLLSIRCQHQEQVEDLTASH [MTUS2] | 5.25 ± 0.23 | 5.09 ± 0.22 | – | –
87 | PEGARRGLGVLRALGSRGWEPFDW [FANCE] | 3.05 ± 0.34 | 2.98 ± 0.42 | – | –
88 | ASSGDLTCGVCALELGSTEVLLDH [PLAGL1] | 2.68 ± 0.4 | 2.82 ± 0.49 | – | –
89 | RPNSRHTPSFSGDSSSSCSDHCIT [VDR] | 4.52 ± 0.086 | 4.45 ± 0.25 | – | –

Reference: the supplement of paper PMC10567573
